Reference: article PMC11301353 (iScience, 2024)

Key:
Assay in all cases: site-directed spin labelling EPR
[1] = target: SET/TAF-Iβ D260C mutant, MTSL spin-labelled (UniProt Q01105-2 1-277, D260C, MTSL nitroxide spin label on Cys260)
[2] = target: SET/TAF-Iβ D226C mutant, MTSL spin-labelled (UniProt Q01105-2 1-277, D226C, MTSL nitroxide spin label on Cys226)
[3] = target: SET/TAF-Iβ E243C mutant, MTSL spin-labelled (UniProt Q01105-2 1-277, E243C, MTSL nitroxide spin label on Cys243)

Measured: binding result

B1: wild-type cytochrome c (natural protein)
chain: not shown
modifications: heme group (assembled by co-expressed yeast heme lyase); reduced state in ITC and EPR
binds: all assays above
